Reference: article PMC3835959 (Cell reports, 2013)
Numbering of substitutions follows the chain as printed. Numbers in names are those of the source.

B1: EscN ATPase, full-length, hexameric (enzyme)
chain: MISEHDSVLEKYPRIQKVLNSTVPALSLNSSTRYEGKIINIGGTIIKARLPKARIGAFYKIEPSQRLAEVIAIDEDEVFLLPFEHVSGMYCGQWLSYQGDEFKIRVGDALLGRLIDGIGRPMESNIVAPYLPFERSLYAEPPDPLLRQVIDQPFILGVRAIDGLLTCGIGQRIGIFAGSGVGKSTLLGMICNGASADIIVLALIGERGREVNEFLALLPQSTLSKCVLVVTTSDRPALERMKAAFTATTIAEYFRDQGKNVLLMMDSVTRYARAARDVGLASGEPDVRGGFPPSVFSSLPKLLERAGPAPKGSITAIYTVLLESDNVNDPIGDEVRSILDGHIVLTRELAEENHFPAIDIGLSASRVMHNVVTSEHLRAAAECKKLIATYKNVELLIRIGEYTMGQDPEADKAIKNRKLIQNFIQQSTKDISSYEKTIESLFKVVA
B2: CesAB–EspA heterodimeric chaperone–substrate complex (complex)
chain 1: MSIVSQTRNKELLDKKIRSEIEAIKKIIAEFDVVKESVNELSEKAKTDPQAAEKLNKLIEGYTYGEERKLYDSALSKIEKLIETLSPARSKSQSTMNQRNRNNRKIV
chain 2: MDTSTTASVASANASTSTSMAYDLGSMSKDDVIDLFNKLGVFQAAILMFAYMYQAQSDLSIAKFADMNEASKESTTAQKMANLVDAKIADVQSSSDKNAKAQLPDEVISYINDPRNDITISGIDNINAQLGAGDLQTVKAAISAKANNLTTTVNNSQLEIQQMSNTLNLLTSARSDMQSLQYRTISGISLGK
B3: CesAB^Y64A/R68A–EspA complex (complex)
chain 1: B2 chain 1 with Y64A, R68A
chain 2: B2 chain 2

Experiments:
[1] = target: the molecule itself
[2] = target: B1; test: NMR titration

Binder | stoichiometry N [1] | Kd [2]
B1 | 6 | –
B2 | – | ~3000 nM
B3 | – | > 80000 nM
